# In patent US20180291343:
# Legend:
# [1] = test system: TALEN Beta2M T01 LEFT (artificial); assay: cell_activity; details: primary T cells, 10 ug TALEN mRNA as pair with right monomer, 3 days post electroporation; 38% at 2 ug; untransfected nearly 100% positive
# [2] = test system: TALEN Beta2M T01 RIGHT (artificial); assay: cell_activity; details: primary T cells, 10 ug TALEN mRNA as pair with left monomer, 3 days post electroporation; 38% at 2 ug; untransfected nearly 100% positive
Sequence,activity (% beta2-m negative cells) [1],activity (% beta2-m negative cells) [2]
"TGGCCTTAGCTGTGCTC (double strand) [B2M T01 target, left half-site]",80,
"TTCTGGCCTGGAGGCTA (double strand) [B2M T01 target, right half-site]",,80
